Source: patent publication US20060246071A1

Columns and labels:
[1] = target: human Ang-2 mutated at positions 365 and 367 (human) (UniProt O15123); experiment: ELISA
[2] = target: Human Ang-1/2 BsmI chimera (human); experiment: ELISA
[3] = target: human Ang-2 V345M (human) (UniProt O15123); experiment: ELISA
[4] = target: human Ang-2 H375Q (human) (UniProt O15123); experiment: ELISA
[5] = target: recombinant human Angiopoietin-2 (human) (UniProt O15123); experiment: Biacore, mAb captured
[6] = target: recombinant human Angiopoietin-2 (human) (UniProt O15123); experiment: inhibition of rhAng-2 binding to its receptor
[7] = target: Mouse/Human chimeric Ang-2 with human StuI-TfiI fragment (residues 310-400) (mouse with human residues 310-400) (UniProt O35608); experiment: ELISA
Chain of Mouse/Human chimeric Ang-2 with human StuI-TfiI fragment (residues 310-400) (mouse with human residues 310-400) (O35608 other isoform, or with tags, fused parts or gaps mutant limits assumed): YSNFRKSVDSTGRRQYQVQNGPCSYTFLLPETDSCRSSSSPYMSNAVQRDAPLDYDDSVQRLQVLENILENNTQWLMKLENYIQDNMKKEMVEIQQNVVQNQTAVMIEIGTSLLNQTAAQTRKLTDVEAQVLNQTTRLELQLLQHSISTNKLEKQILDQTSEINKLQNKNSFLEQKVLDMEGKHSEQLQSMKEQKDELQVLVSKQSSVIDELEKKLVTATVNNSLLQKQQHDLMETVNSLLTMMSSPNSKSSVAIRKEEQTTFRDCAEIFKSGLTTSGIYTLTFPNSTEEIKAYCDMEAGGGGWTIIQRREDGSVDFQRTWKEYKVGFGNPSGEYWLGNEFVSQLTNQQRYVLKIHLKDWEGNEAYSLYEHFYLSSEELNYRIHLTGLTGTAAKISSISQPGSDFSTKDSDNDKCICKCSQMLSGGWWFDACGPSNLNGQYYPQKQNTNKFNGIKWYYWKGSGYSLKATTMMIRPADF

human Ang-2443 (human) = human Ang-2443 (human) (UniProt O15123); experiment: ELISA
Chain of human Ang-2443 (human) (O15123 other isoform, or with tags, fused parts or gaps): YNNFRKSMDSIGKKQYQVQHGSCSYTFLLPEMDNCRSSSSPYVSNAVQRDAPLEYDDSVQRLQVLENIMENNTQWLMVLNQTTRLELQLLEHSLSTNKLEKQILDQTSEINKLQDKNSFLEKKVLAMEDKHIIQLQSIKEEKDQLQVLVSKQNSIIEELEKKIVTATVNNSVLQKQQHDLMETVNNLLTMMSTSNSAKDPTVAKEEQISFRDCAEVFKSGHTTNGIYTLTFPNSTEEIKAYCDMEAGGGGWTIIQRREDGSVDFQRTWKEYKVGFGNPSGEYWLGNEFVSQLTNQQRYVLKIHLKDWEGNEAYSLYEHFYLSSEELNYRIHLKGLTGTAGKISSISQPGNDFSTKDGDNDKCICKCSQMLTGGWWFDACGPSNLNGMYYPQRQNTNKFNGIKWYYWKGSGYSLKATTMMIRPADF

[8] = target: Mouse/Human Ang-2 StuI chimera (mouse; human) (UniProt O35608); experiment: ELISA
Chain of Mouse/Human Ang-2 StuI chimera (mouse; human) (O35608 other isoform, or with tags, fused parts or gaps mutant): as the sequence (O35608 other isoform, or with tags, fused parts or gaps mutant limits assumed) above, with T386K, A393G, S403N, S410G, S424T, Q440M, K445R counted along it

[9] = target: recombinant human Angiopoietin-2 (human) (UniProt O15123); experiment: Biacore, mAb captured; kd held constant in fit
[10] = target: mouse Angiopoietin-2 (mouse) (UniProt O35608); experiment: ELISA
Chain of mouse Angiopoietin-2 (mouse) (O35608 19-496 S348N/G411A limits assumed): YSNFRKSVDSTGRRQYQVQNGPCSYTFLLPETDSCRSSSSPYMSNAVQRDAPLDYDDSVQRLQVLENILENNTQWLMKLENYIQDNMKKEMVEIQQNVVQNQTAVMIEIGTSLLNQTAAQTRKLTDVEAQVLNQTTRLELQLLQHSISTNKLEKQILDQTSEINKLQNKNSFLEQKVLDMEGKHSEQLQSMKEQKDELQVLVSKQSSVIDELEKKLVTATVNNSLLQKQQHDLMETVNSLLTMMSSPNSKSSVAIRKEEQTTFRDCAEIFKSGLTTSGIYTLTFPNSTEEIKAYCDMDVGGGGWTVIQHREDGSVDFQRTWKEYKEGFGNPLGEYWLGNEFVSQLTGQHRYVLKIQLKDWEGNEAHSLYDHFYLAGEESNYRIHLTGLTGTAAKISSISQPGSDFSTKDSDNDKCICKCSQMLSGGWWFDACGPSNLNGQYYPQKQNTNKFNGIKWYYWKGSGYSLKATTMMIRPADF

[11] = target: mouse Angiopoietin-2 (mouse) (UniProt O35608); experiment: ELISA titration, mouse Ang-2 supernatant coated

Chain of human Ang-2 mutated at positions 365 and 367 (human) (O15123 19-496, change not shown): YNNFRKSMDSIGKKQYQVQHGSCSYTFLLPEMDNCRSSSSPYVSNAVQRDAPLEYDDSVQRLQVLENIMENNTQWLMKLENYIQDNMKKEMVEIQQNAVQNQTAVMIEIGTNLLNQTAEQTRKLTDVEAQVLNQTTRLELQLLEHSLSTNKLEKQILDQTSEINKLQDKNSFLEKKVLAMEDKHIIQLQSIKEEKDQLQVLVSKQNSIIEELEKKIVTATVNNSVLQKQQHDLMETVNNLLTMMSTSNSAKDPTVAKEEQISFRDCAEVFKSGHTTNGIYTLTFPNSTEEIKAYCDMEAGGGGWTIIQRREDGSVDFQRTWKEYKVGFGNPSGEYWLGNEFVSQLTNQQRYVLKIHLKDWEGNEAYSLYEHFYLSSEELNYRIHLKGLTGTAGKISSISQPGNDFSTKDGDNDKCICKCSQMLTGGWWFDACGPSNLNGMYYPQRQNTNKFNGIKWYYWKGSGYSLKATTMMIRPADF
Chain of human Ang-2 H375Q (human) (O15123 19-496, stated change not applied): as the sequence (O15123 19-496, change not shown) above
Chain of recombinant human Angiopoietin-2 (human) (O15123 19-496 limits assumed): as the sequence (O15123 19-496, change not shown) above
Chain of human Ang-2 V345M (human) (O15123 19-496, stated change not applied): as the sequence (O15123 19-496, change not shown) above

percent binding compared to human Ang-2 [1] [%] | percent binding compared to human Ang-2 [2] [%] | percent binding compared to human Ang-2 [3] [%] | percent binding compared to human Ang-2 [4] [%] | Kd [5] [nM] | kon [5] [M⁻¹ s⁻¹] | OD650 in inibition assay [6] [OD650] | percent binding compared to human Ang-2 [7] [%] | percent binding compared to human Ang-2 (human Ang-2443 (human)) [%] | percent binding compared to human Ang-2 [8] [%] | koff [9] [s⁻¹] | percent of their immunoreactivity on human Ang-2 [10] [%] | antibody concentration at saturation [11] [µg/mL] | Binder
100 | 100 | 100 | 100 | – | – | – | – | – | – | – | – | – | mAb 5.39.1 (antibody, V domains shown) VH: QVQLVQSGAEVTKPGASVKVSCKASGYTFTAYHMYWVRQAPGQGLEWMGWINPNSGGTNYAQKFQGRVTMTRDTSISTAYMELSRLRSDDSPVYYCARDQGIAAAGPFDYWGQGTLVTVSS VL: EIVMTQSPATLSVSPGDRATLSCRASQSVSSNFAWYQQKPGQAPRLLIYGSSTRATGIPARFSGSGSGTEFTLTISSLQSEDFAVYYCQQYHYWWTFGQGTKVEFKR
100 | 100 | 100 | 100 | – | – | – | – | – | – | – | – | – | mAb 3.3.2 (antibody, V domains shown) VH: EVQLVESGGGLVQPGGSLRLSCAVSGFTFSSYWMSWVRQAPGKGLEWVANIKQDGSEKYYVDSVKGRFTISRDNAKNSLYLQMNSLRAEDTAVYYCARDQGIAVAGPFDYWGQGTLVTVSS VL: EIVMTQSPATLSVSPGERATLSCRASQTVSSDLAWYQQKPGQAPRLLIYGASIRATGIPARFSGSGSGTEFTLTISSLQSEDFAVYSCQQYYNWWTFGQGTKVEIKR
100 | 100 | 100 | 100 | – | – | – | – | – | – | – | – | – | mAb 5.62.1 (antibody, V domains shown) VH: EVQLVESGGGLVQPGGSLRLSCAASGFTFSSYWMSWVRQAPGKGLEWVANIKQDGSEKYYVDSVKGRFTISRDNAKNSLYLQMNSLRAEDTAVYYCARDPGIAVAGPFDYWGQGTLVTVSS VL: EIVMTQSPATLSVSPGERATLSCRASQSVSSNLAWYQQKPGQAPRLLIYGAFTRATGIPARFSGSGSGTEFTLTISSLQSEDFAVYYCQQYNHWWTFGQGTKVGIKR
100 | 100 | 100 | 100 | – | – | – | – | – | – | – | – | – | mAb 5.86.1 (antibody, V domains shown) VH: QVQLVQSGAEVKKPGASVKVSCKASGYTFTGYHMYWVRQAPGQGLEWLGWINPNSGGTNYAQKFQGRVTMTRDTSISTAYMELSRLRSDDTAVYYCVRDQGIAAAGPFDYWCQGTLVTVSS VL: DIRMTQSPSSLSASVGDRVTITCRASQRISTYLNWYQQKPGKAPKFLIYAASSLQSGVPSRFSGSGSGTDFTLTISSLQPEDFATYYCQQSYTTPFTFGPGTKVDIKR
100 | 100 | 100 | 100 | – | – | – | – | – | – | – | – | – | mAb 5.88.3 (antibody, V domains shown) VH: EVQMVESGGGLVQPGGSLRLSCAASGFTLRSYWMSWVRQAPGKGLEWVANIKEDGSEKYHVDSVKGRFTISRDNAENSLFLQMSSLRAEDTAVYYCARDMEASAGLFDYWGQGTLVTVSS VL: EIVMTQSPATLSVSPGERAILSCRASQSISSNLAWYQQKPGQAPRLLIYGASTRATGIPARFSGSGSGTEFTLTISSLQSEDFAVYYCQQYNYWWTFGQGTKVEIKR
100 | 100 | 100 | 100 | 0.037 | 270000 | 0.0588 | 31 | 100 | 100 | 1e-05 | – | – | mAb 3.28.1 (antibody, part only; not given: light chain, V domains shown, part only) VH: EVQLVESGGGLVQPGGSLRLSCAASGFTFSSSWMSWVRQAPGKGLEWVANIKQDGSDKYYVDSVKGRFTISRDNAKNSLYLQMNSLRAEDTAVYYCVRDKGSGWFDYWGQGTLVTVSSA
100 | 100 | 100 | 100 | – | – | – | – | – | – | – | – | – | mAb 6.3.1 (antibody, V domains shown) VH: QVQLVQSGAEVKKPGASVKVSCKASGYTFTGYFMHWVPQAPGQGLEWMGWINPNSGGTNYAQNFQGRVTMTRDTSISTAYMELSRLRSDDTPVYYCARDPWQNWNSYFDYWGQGTLVTVSS VL: DIQMTQSPSSLSASVGDRVTITCRASQSIRSYLNWYQQKPGKAPKVLIYAASSLQSGVPSRFSGSGSGTDFTLTISSLQPEDFATYYCQQSYSTLCSFGQGTKLEIKR
100 | 100 | 100 | 100 | 0.062 | 160000 | 0.069 | 100 | 100 | 100 | 1e-05 | 100 | 10 | mAb 5.2.1 (antibody, part only; not given: light chain, V domains shown, part only) VH: QVQLVESGGGVVQPGRSLRLSCAASGFTFSSYGMHWVRQAPGKGLEWVAVIWFDGFNKYYADSVKGRFTISRDNSKNTLYLQMNSLRAEDTAVYHCARDRGYSGYDHYYGMDVWGQGTTVTVSSA
100 | 100 | 100 | 100 | – | – | – | – | – | – | – | – | – | mAb 5.28.1 (antibody, V domains shown) VH: EVQLVESGGIVVQPGGSLRLSCAASGFTFDDYTMHWVRQTPGKGLEWVSLISWDGGSTYYADSVKGRFTISRDNSKNSLYLQMNSLRTEDTALYYCAKDIDIAVAGTGFDHWGQGTLVTVSS VL: EIVMTQSPATLSVSPGERATLSCRASQSVTSNLAWYQQKPGQAPRLLIYGALIRATGIPARFSGSGSGTEFTLTISSLQSEDFAVYYCQQYNNWPFTFGPGTKVDIKR
